Assay results published in the supplement of paper PMC10724198.
± gives the standard deviation of the averaged measurements.

System: Saccharomyces cerevisiae
Assay: protein stability index of tFT-peptide fusion (C-terminal peptide) (PSI (0-1 scale)); higher = more stable (slower turnover)
Settings: genetic background: wild type; temperature: 30 C
Description: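 Multiplexed protein stability (MPS) profiling in S. cerevisiae. Random 12-aa peptides (tFT-X12 library) are fused to the C-terminus of a sfGFP-mCherry tandem fluorescent timer, after mCherry and a GGGS linker. Cells are FACS-sorted into 8 mCherry/sfGFP bins and deep-sequenced. The protein stability index (PSI) is the read-weighted bin average, scaled from 0 (unstable) to 1 (stable). Only peptides with >10 reads are reported; cells were grown at 30 °C in SC-His with glucose.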
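Also: PSI is a weighted mean of sequencing reads over stability bins, variants kept only with over 10 reads, mCherry proximal and sfGFP distal, peptide attached via GGGS linker.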

Row | Sequence | protein stability index
1 | TKWYDSSKKTNK | 0.688 ± 0.075
2 | ALSTALVIPLLY | 0.58818 ± 0.00035
3 | GLARPFVGFPHL | 0.7352 ± 0.0028
4 | YSDFLICGIGSY | 0.775 ± 0.037
5 | LAPPPRPPLAPP | 0.637 ± 0.03
6 | VLAGFVLNDWVP | 0.731 ± 0.023
7 | GLWSWFLCYEFY | 0.657 ± 0.02
8 | AWDGVESGRGLE | 0.67797 ± 0.00016
9 | WVPLGVVGWFGG | 0.659 ± 0.038
10 | WRTRRVVFPNWH | 0.666 ± 0.008
11 | PPPSRSLPPRPQ | 0.727 ± 0.027
12 | KKKGWAKEKLKR | 0.75 ± 0.051
13 | PPRSPPPPPTLP | 0.6578 ± 0.001
14 | AGEGLIRMIVRP | 0.694 ± 0.024
15 | TNSPTVSGCLQQ | 0.716 ± 0.07
16 | PQHLPFPSPAPP | 0.711 ± 0.011
17 | QPPPDPPPPTPS | 0.592 ± 0.014
18 | CTPSSLRPLMPS | 0.655 ± 0.073
19 | CGWTSPSLVPTC | 0.791 ± 0.045
20 | VRIRRNGAVSFM | 0.6829 ± 0.0038
21 | ATPAPRGEVLVP | 0.6369 ± 0.0034
22 | FPRRPSPGPLIS | 0.678 ± 0.035
23 | SPVPPSPAPLLI | 0.673 ± 0.018
24 | ILCASDLNRPCL | 0.697 ± 0.04
25 | LLCSLRPLAVPP | 0.602 ± 0.039

Row | Sequence | protein stability index
26 | VHFISPACSPPT | 0.673 ± 0.058
27 | PPPPPSSPPLPP | 0.64 ± 0.083
28 | LLSTPPIVSPPA | 0.6987 ± 0.0031
29 | SPAQLSYLFPAP | 0.7928 ± 0.0039
30 | PASYSAPVSLFI | 0.7035 ± 0.002
31 | PPSNASFSSPPH | 0.824 ± 0.035
32 | RDKIRMIDSYLT | 0.696 ± 0.025
33 | GGAMYVSFFDKF | 0.68 ± 0.021
34 | CPPTPSPSTLPT | 0.663 ± 0.016
35 | LPSPPPSSPLPP | 0.56 ± 0.048
36 | KRKKEKRKEERK | 0.779 ± 0.011
37 | GLGQGVGGPWAV | 0.678 ± 0.041
38 | FCWRDIICAFFR | 0.72 ± 0.019
39 | FTWFGAFLSCFV | 0.61 ± 0.069
40 | LFLLYPRLTLPL | 0.621 ± 0.023
41 | LGLSDPERLFVI | 0.664 ± 0.025
42 | GGGLGGVRGGVR | 0.628 ± 0.074
43 | ISFTDPSMGTLG | 0.608 ± 0.11
44 | EGDGLGWGGQGG | 0.67 ± 0.013
45 | SSHSFFLFRISL | 0.608 ± 0.061
46 | KKRREKKYQHKI | 0.713 ± 0.039
47 | MIKDVYIDNDNV | 0.694 ± 0.02
48 | VGRGGGVWRLEG | 0.699 ± 0.045
49 | TVGRILEVSRRG | 0.66 ± 0.025
50 | CGGWTRRSGDMV | 0.678 ± 0.042

Row | Sequence | protein stability index
51 | RRGEVTQTCGCE | 0.549 ± 0.054
52 | LAPSWVGYVSGH | 0.7 ± 0.069
53 | LKSGRYSYFGSL | 0.734 ± 0.086
54 | PFFRASFSGLID | 0.681 ± 0.061
55 | SVSPPLPPSSIA | 0.673 ± 0.021
56 | SSFLSLYSIPLP | 0.734 ± 0.044
57 | TAVGRKWCGRVL | 0.695 ± 0.028
58 | KGRWEVRGEGRG | 0.64 ± 0.03
59 | KELENLHDNEGN | 0.616 ± 0.019
60 | GKRRTIQPGQKM | 0.698 ± 0.032
61 | YLSSTVVRSMLF | 0.644 ± 0.014
62 | PLLPRPPPLPPP | 0.703 ± 0.055
63 | HGKNLALNEKCW | 0.691 ± 0.034
64 | RKVGRVGGGRLE | 0.637 ± 0.018
65 | PLHPLTLPHLPT | 0.665 ± 0.092
66 | VVAVGHWFDGGV | 0.623 ± 0.045
67 | PQRPRTLPPLTP | 0.7236 ± 0.0015
68 | GGGLREARVLRG | 0.711 ± 0.015
69 | PHTPSRPLSPAP | 0.713 ± 0.063
70 | TYSTLHILLSSS | 0.602 ± 0.014
71 | AGGRSVCGSALP | 0.661 ± 0.016
72 | CVLYQLPPAYSF | 0.643 ± 0.029
73 | YVEGSWSSPRCR | 0.675 ± 0.12
74 | TDLSLSPAALRH | 0.717 ± 0.1
75 | GPWGGSGGGGVG | 0.628 ± 0.041

Row | Sequence | protein stability index
76 | QKSKSSYPESYV | 0.777 ± 0.062
77 | RVMGWWGARVLG | 0.697 ± 0.027
78 | GLFRESVLGSVW | 0.708 ± 0.013
79 | HSCLVRSDPPPS | 0.704 ± 0.12
80 | QCNGDEKKKLYK | 0.609 ± 0.022
81 | PHASLLPPSLSR | 0.728 ± 0.0085
82 | PGPPPGTDAFQH | 0.718 ± 0.12
83 | PPSIFELFPSPP | 0.7122 ± 0.0051
84 | FLPCPPSPPSPR | 0.765 ± 0.06
85 | PAPLPFPLPTSL | 0.757 ± 0.015
86 | LTTMSPGLLRRP | 0.639 ± 0.065
87 | HPHPPQSTNPYT | 0.677 ± 0.058
88 | PSPHRELNESHE | 0.674 ± 0.045
89 | SKSDRNMQTIHY | 0.605 ± 0.067
90 | ALRLLRHTLSSS | 0.703 ± 0.016
91 | RADLHGFPHRCP | 0.76 ± 0.024
92 | GARAGLIDALLS | 0.675 ± 0.021
93 | AGCVAVYGVFLG | 0.619 ± 0.13
94 | GSGRVVGSWSVL | 0.661 ± 0.045
95 | PSPSAFLPCRLD | 0.791 ± 0.094
96 | PFPFSPPHSLVS | 0.743 ± 0.027
97 | PPQFIYYPLPLF | 0.616 ± 0.063
98 | GRWGVMKGEEDV | 0.737 ± 0.032
99 | EGDTPFKNRVKF | 0.716 ± 0.061
100 | PFVIKSWSYVTR | 0.605 ± 0.02

Row | Sequence | protein stability index
101 | SEYPCSDRAEVA | 0.65 ± 0.017
102 | LRFIIPSDLSFV | 0.696 ± 0.03
103 | PRRSSSPPLLSP | 0.784 ± 0.0088
104 | VRCSAASLKVRK | 0.675 ± 0.01
105 | SHPPPTLLSYLP | 0.746 ± 0.0079
106 | LVCTLLGAASAP | 0.708 ± 0.033
107 | SRGIRPYYRLLL | 0.596 ± 0.0094
108 | FSSHGFSSFLLL | 0.691 ± 0.084
109 | KKTRGNNGKTQR | 0.631 ± 0.0076
110 | FSHPLLRARRTW | 0.656 ± 0.086
111 | RKVHNVETQITA | 0.648 ± 0.018
112 | VRAAAFCFVRFR | 0.55 ± 0.021
113 | RLRCRRPKPRRC | 0.682 ± 0.035
114 | FSLSRLCFCFRS | 0.529 ± 0.024
115 | PGRSMCITLVKT | 0.595 ± 0.0078
116 | FFLSDDALVYNH | 0.788 ± 0.065
117 | ALRVHVPPYVPA | 0.6785 ± 0.0049
118 | SPSPALPPRIRF | 0.818 ± 0.15
119 | YIDLVEGECNKK | 0.685 ± 0.046
120 | YRPFQAPPLVLF | 0.6379 ± 0.0026
121 | RLGGAACLRSEC | 0.627 ± 0.04
122 | RYTTCPVLNPGV | 0.618 ± 0.018
123 | GGGRGRAGVGVW | 0.714 ± 0.05
124 | DGSLTMTRTGFR | 0.704 ± 0.021
125 | HPNPYTTPGTPA | 0.625 ± 0.0078

Row | Sequence | protein stability index
126 | GSSAVGGGGVWW | 0.819 ± 0.1
127 | IVMGVGCYTGRP | 0.74 ± 0.036
128 | YAAGGPLLLCNQ | 0.66 ± 0.021
129 | VMVVVGLQGTMV | 0.5962 ± 0.0032
130 | CSRDNRTSRSIL | 0.681 ± 0.032
131 | GGGAFVGLDFGG | 0.684 ± 0.0071
132 | LPTKPVPIPRHY | 0.693 ± 0.052
133 | LFSSQAGGRLES | 0.67 ± 0.019
134 | TMTGSGRGEKWE | 0.733 ± 0.1
135 | APSGFRRKDVDL | 0.68 ± 0.034
136 | SHRTHPAAPHAP | 0.738 ± 0.056
137 | KQQRKNEKTNTL | 0.658 ± 0.16
138 | VIQVRDLRLFSR | 0.734 ± 0.028
139 | THYFNIKCSQTK | 0.665 ± 0.013
140 | PPRHTPFSLPPF | 0.651 ± 0.074
141 | QTRQPKRSDEEK | 0.686 ± 0.014
142 | WENKKRMIRQKL | 0.526 ± 0.016
143 | GRAGEKRGGRRL | 0.66 ± 0.013
144 | PSLLSFPFVSLP | 0.696 ± 0.05
145 | YWSRIFEAATIA | 0.5436 ± 0.0024
146 | GLVDVYWVCIIV | 0.6069 ± 0.0046
147 | PPLPFPPPPLPP | 0.613 ± 0.029
148 | KSARSYSMEGEI | 0.673 ± 0.016
149 | PHLANLFTWSSC | 0.66 ± 0.092
150 | GGRWGDSGMGVV | 0.715 ± 0.026

Row | Sequence | protein stability index
151 | GGCVVGTGRRRY | 0.6114 ± 0.0061
152 | RAKNRFKRQGEN | 0.667 ± 0.023
153 | ACLLYSGFSTEL | 0.654 ± 0.0066
154 | PLYLAYKDTLLS | 0.69 ± 0.035
155 | PSPHSPPSFLPL | 0.729 ± 0.024
156 | GEWGRVGVPGCS | 0.718 ± 0.043
157 | GWLGGGVRLGRL | 0.714 ± 0.067
158 | LSPPPHTSVPRL | 0.659 ± 0.12
159 | GVGWWLGLGVIW | 0.692 ± 0.029
160 | GGGGGSSWVGYG | 0.8981 ± 0.0027
161 | PSVPPSPPAPPT | 0.687 ± 0.032
162 | PPRPQPPGSSFS | 0.741 ± 0.012
163 | VGVWTGGDVDCH | 0.777 ± 0.086
164 | PPPPVPPPPSSL | 0.749 ± 0.037
165 | PPRPFTLLPPPP | 0.6424 ± 0.0062
166 | GGWGGRGQGWYR | 0.6673 ± 0.0055
167 | PPPAPLALTPSL | 0.71394 ± 0.00049
168 | PIPPSTRSLHPL | 0.668 ± 0.027
169 | VGVQLLLSAWEK | 0.715 ± 0.066
170 | GRSKKGTISMNS | 0.67 ± 0.0077
171 | PLEKASMTLWGR | 0.691 ± 0.05
172 | KNAQQYQKKQKQ | 0.797 ± 0.056
173 | KAVSRQSEATPV | 0.76 ± 0.093
174 | VVGRTNRYAVPH | 0.662 ± 0.061
175 | DNSDIKKGARRI | 0.707 ± 0.014

Row | Sequence | protein stability index
176 | CGISTRYHNRES | 0.696 ± 0.023
177 | LGRPLLYALFFP | 0.724 ± 0.048
178 | YRVSWSFLGCFQ | 0.62 ± 0.071
179 | GWGFLGGTVAAV | 0.697 ± 0.035
180 | AGRFAPAEARVF | 0.622 ± 0.056
181 | TGWRGVLGLGPG | 0.674 ± 0.02
182 | SPCRAGRPAGLR | 0.729 ± 0.071
183 | FTSGESVCGGRV | 0.698 ± 0.0026
184 | KTKKQEKNNKSK | 0.685 ± 0.029
185 | PLLPPPPSLRSP | 0.747 ± 0.1
186 | FRAYCLPCNYHR | 0.68 ± 0.052
187 | GQQLSLRGVVHW | 0.844 ± 0.2
188 | PPWPPQVALPPT | 0.762 ± 0.068
189 | ENLVLRDRGRGM | 0.692 ± 0.017
190 | VVSGDAPVARRA | 0.6781 ± 0.0056
191 | RYSPPPPPIPSP | 0.715 ± 0.0022
192 | GSWGVGLGKVHW | 0.752 ± 0.022
193 | PLRVPPPPCSRS | 0.722 ± 0.1
194 | APDLPHSTNLPR | 0.741 ± 0.024
195 | QARHNMVYHEIV | 0.656 ± 0.029
196 | VAVRGGCGDWGR | 0.689 ± 0.021
